The target of the experiment is GST-MDC1-BRCT. Briefly: SPR.

The term Kd denotes a measure of binding affinity in units of concentration.

Square brackets hold non-standard residues; d marks the D form. Ends that are not written are not given here. pS = N[C@@H](COP(=O)(O)O)C(=O)O

B1: γH2AX peptide (peptide)
chain: KKATQA[pS]QEY
Turning to B1, the Kd amounted to 0.287 µM. In other words, the sub-micromolar range.

B2: MMSET phosphopeptide containing pS102 (peptide)
chain: AKLRFE[pS]QEMKG
B2: binding was characterised by a dissociation constant (Kd) of 0.893 µM.

(Values after article PMC3064261 (Nature, 2011).)
